Measurements: paper PMC10965912, “FliH and FliI help FlhA bring strict order to flagellar protein export in Salmonella” (Communications Biology, 2024)

Experiments:
[1] = molecular target: T1, FlgK (Salmonella enterica serovar Typhimurium, UniProt P0A1J5 1-553); test: pull-down; GST affinity chromatography: purified His-FlhAC mixed with purified GST-FlgN/FlgK complex or GST-FliJ, dialyzed overnight against PBS pH 7.4 at 4 °C, loaded on glutathione Sepharose 4B, eluted with 10 mM reduced glutathione; SDS-PAGE with CBB staining; settings: both partners purified
T1 construct: FlgK, filament-type export substrate, Salmonella enterica serovar Typhimurium (plasmid pMKGK2, pTrc99A); source: E. coli BL21 Star (DE3), purified (Q-Sepharose anion exchange)
T1 sequence: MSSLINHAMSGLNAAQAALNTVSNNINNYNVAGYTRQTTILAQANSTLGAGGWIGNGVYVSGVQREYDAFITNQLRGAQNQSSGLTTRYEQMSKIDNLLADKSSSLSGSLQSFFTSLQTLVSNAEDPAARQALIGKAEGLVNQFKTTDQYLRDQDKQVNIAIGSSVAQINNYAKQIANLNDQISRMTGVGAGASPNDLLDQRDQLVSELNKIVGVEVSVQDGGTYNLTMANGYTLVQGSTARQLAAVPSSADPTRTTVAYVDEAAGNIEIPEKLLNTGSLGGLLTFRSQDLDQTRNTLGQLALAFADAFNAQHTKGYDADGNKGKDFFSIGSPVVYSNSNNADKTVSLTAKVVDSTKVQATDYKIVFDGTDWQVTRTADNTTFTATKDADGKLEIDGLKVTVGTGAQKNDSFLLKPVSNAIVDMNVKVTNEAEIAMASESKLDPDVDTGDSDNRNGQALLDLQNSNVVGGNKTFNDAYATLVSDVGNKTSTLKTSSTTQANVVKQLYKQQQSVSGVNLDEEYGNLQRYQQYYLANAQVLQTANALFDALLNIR

[2] = molecular target: the molecule itself; test: high-speed atomic force microscopy; ring formation of purified FlhAC monomer (2 μM) in 50 mM Tris-HCl pH 8.0, 100 mM NaCl placed on mica, room temperature; imaged in 10 mM Tris-HCl pH 6.8

B1: GST-FlgN (natural protein)
chain: MTRLSEILDQMTTVLNDLKTVMDAEQQQLSVGQINGSQLQRITEEKSSLLATLDYLEQQRRLEQNAQRSANDDIAERWQAITEKTQHLRDLNQHNGWLLEGQIERNQQALEVLKPHQEPTLYGADGQTSVSHRGGKKISI
notes: FlgN, flagellar export chaperone, Salmonella enterica serovar Typhimurium (plasmid pMMGN101, pGEX-6p-1); source: Salmonella SJW1368, purified (glutathione Sepharose 4B)
Does B1 bind [1]?
Result: binds

B2: His-FlhAC with the Y369A/R370A/L371A/I372V (AAAV) mutation (domain or fragment)
chain: AGILIMVINVVGGLLVGVLQHGMSIGSAAESYTLLTIGDGLVAQIPALVISTAAGVIVTRVSTDQDVGEQMVGQLFSNPRVMLLAAAVLGLLGMVPGMPNLVFLLFTAALLGLAWWLRGREEKAPEEPQPVKMPENNSVVEATWNDVQLEDSLGMEVGAAAVPMVDFQQDGELLGRIRSIRKKFAQDMGFLPPVVHIRDNMDLQPARYRILMKGVEIGSGDAYPGRWLAINPGTAAGTLPGEKTVDPAFGLDAIWIESALKEQAQIQGFTVVEASTVVATHLNHLIGQFSAELFGRQEAQQLLDRVSQEMPKLTEDLVPGVVTLTTLHKVLQNLLAEKVPIRDMRTILETLAEHAPLQSDPHELTAVVRVALGRAITQQWFPGNEEVQVIGLDTALERLLLQALQGGGGLEPGLADRLLAQTQEALSRQEMLGAPPVLLVNHALRPLLSRFLRRSLPQLVVLSNLELSDNRHIRMTATIGGK
notes: Intragenic suppressor (A372V) of the AAAA mutant; also called FlhA_(C-AAAV); His-FlhA_(C-AAAV); source: E. coli BL21 Star (DE3), purified (Ni-NTA, SEC); not shown: His tag, N-terminal, kept
B2 was tested. Which “stoichiometry N” value [2] did it give?
Its value is 9.
